Laboratory results as given in US20220249679A1 (Mitsubishi Tanabe Pharma Corporation, priority 2018, published 2022).

Columns and labels:
human CD138 = biological target: T1, human CD138 (Homo sapiens, UniProt P18827); assay: FACS binding to Expi293 cells transfected with human CD138; conditions: 3-fold dilutions from 33.3 μg/mL
T1 sequence (P18827 23-310): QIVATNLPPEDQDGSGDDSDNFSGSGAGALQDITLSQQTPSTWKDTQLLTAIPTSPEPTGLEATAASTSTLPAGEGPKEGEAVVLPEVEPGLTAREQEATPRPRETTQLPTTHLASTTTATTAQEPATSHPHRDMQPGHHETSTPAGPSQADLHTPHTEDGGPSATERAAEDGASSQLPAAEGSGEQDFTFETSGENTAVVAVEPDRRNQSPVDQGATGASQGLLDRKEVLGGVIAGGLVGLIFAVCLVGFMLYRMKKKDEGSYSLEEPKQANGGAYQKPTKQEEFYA
Method: (§1) 12P16F6 hIgG1 or 13P30A7 hIgG1 were tested for cross-reactivity to cynomolgus monkey CD138. Antibodies that cross-react with CD138 from cynomolgus monkey (cyno) have an advantage that they can be tested for toxicity in this strain of non-human primate prior to conducting efficacy trials. Briefly, a vector directing the cell-surface expression of human CD138 or cyno CD138 was transfected in Expi293 cells. Binding of 12P16F6 hIgG1 and 13P30A7 hIgG1 to transfected Expi293 cells was tested at 3-fold dilutions starting at 33.3 μg/mL.

cyno CD138 = assay: FACS binding to Expi293 cells transfected with cyno CD138; set-up: species or system cynomolgus monkey; conditions: 3-fold dilutions from 33.3 μg/mL
Method: as §1

cyno CD138, sequence (as listed by the source): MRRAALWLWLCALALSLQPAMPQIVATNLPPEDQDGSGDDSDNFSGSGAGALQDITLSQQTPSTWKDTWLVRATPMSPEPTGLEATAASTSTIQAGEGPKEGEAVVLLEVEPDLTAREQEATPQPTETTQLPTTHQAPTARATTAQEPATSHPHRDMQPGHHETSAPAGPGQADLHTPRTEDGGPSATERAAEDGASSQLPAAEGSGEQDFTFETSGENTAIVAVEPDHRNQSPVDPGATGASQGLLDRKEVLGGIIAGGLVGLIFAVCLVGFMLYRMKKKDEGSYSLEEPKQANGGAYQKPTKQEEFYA

B1: 13P30A7 hIgG1: chimeric antibody: murine variable regions of F13P30A7 (SEQ ID NO:83, 35), constant regions of human IgG1, kappa (antibody, listed as Mus musculus, V domains shown)
VH: EVQLVESGGGLVQPKGSLKLSCAASGFTFNTYAMNWVRQAPGKGLEWIARIRSKSNNYATYYADSVKDRFTISRDDSQSLLYLQMNNLKTEDTAIFYCVTDYGYVYFDAWGAGTTVTVSS
VL: NIIMTQSPKSMAMSVGERVTLSCKASENVGNYVSWYQQKPEQSPKLLIYGASYRYTGVPDRFTGSGSGTDFTLTISSVQAEDLADYHCGQSSRYPLTFGAGTKLELKR
modifications: human IgG1 and kappa constant regions
- binding to human CD138 expressing cells (human CD138): specific binding
- binding to cynomolgus CD138 expressing cells (cyno CD138): specific binding
